Results from article PMC5071372, “Combining biophysical methods to analyze the disulfide bond in SH2 domain of C-terminal Src kinase” (Biophysics Reports, 2016).
“Also recorded” adds a separate entry of the source.

What was measured:
[1] = Guanidine hydrochloride-induced unfolding monitored by tryptophan fluorescence; format: physicochemical; details: guanidine hydrochloride 0 to 6 mol/L, two-state linear extrapolation to H2O
Description: Intrinsic fluorescence of oxidized and reduced form of L-SH2 domain, as well as that of the cysteine mutants C122S and C164S L-SH2, was measured to examine the role of the disulfide bond in the stability of the Csk SH2 domain. […] The thermodynamic stability of these oxidized and reduced L-SH2 domains, as well as that of the mutants at equilibrium, were characterized by determining the free energy of unfolding by using guanidine hydrochloride-induced unfolding experiments monitored by tryptophan fluorescence (Fig. 4A). The curves were fitted using the linear extrapolation model to obtain the ∆G for unfolding in H2O (Santoro and Bolen [1988]). […]
Fluorescence titrations were performed at 25 °C in 3 mL of 50 mmol/L Tris-HCl (pH 7.5) using excitation and emission wavelengths of 288 nm and 320 nm, respectively. […] The concentrations of guanidine hydrochloride of the solutions were determined by measuring the index of refraction and by using the following equation: d/d 0 = 1 + 0.2710 W + 0.0330 W ^2 (Tanford et al. [1966]), where W is the weight fraction of guanidine hydrochloride in the solution, d is the density of the solution, and d 0 is the density of water. […] The signals were normalized to the fraction of unfolded species using the standard relation F unf = (I − I N)/(I U − I N), where N and U stand for the fluorescence intensity of the native and fully unfolded species, respectively. […]

Csk L-SH2 disulfide bond = assay: NMR-monitored reduction of oxidized SH2 by DTT; format: physicochemical, human; details: 10 mmol/L DTT, 50 mmol/L Tris-HCl pH 7.5, 1.0 mmol/L EDTA, 0.01% NaN3, 5% D2O, 298 K, NMR peak intensity
Source text: During purification of the Csk L-SH2 domain, 50 mmol/L DTT was used to elute the protein from the chitin resin. The L-SH2 was used in reduced form, given that DTT was used to cleave L-SH2 from its intein fusion partner. Following elution of the protein from the ion exchange column, the L-SH2 became a mixture of the reduced and oxidized forms. The fully oxidized form was obtained by exposing the protein to air for several days.
Fig. 3 Comparison of the oxidized and reduced form of SH2. A Comparison of ^1H–^15N HSQC of oxidized (red) and reduced (green) SH2. B Combined chemical shift change of oxidized and reduced form SH2. The difference was calculated as ∆δ tot = [(∆δ H)^2 + (0.154∆δ N)^2]^1/2. […]
All NMR experiments were performed at 298 K on 800 MHz spectrometers equipped with triple-resonance cryoprobes. […] The combined change in chemical shift of a particular residue upon ligation with the kinase domain was calculated as ∆δ = [(∆δ H)^2 + (0.154∆δ N)^2]^1/2, where ∆δ H and ∆δ N correspond to the changes in amide proton and nitrogen chemical shift, respectively. The weight factor for ^1H and ^15N is determined from the ratio of the average variances of the amide nitrogen and proton chemical shifts observed for the 20 common amino acid residues in proteins deposited in the BioMagResBank (Mulder et al. [1999]). […]

full-length Csk = details: ref Mills et al. [2007], cited from earlier work
Source text: Disulfide bonds are mostly found in secretory proteins and in extracellular domains of membrane proteins. Cytosolic proteins, which contain cysteine residues that are in close proximity to each other, may function as oxidation sensors; when the reductive potential of the cell fails, they oxidize and trigger cellular response mechanisms (Sevier and Kaiser [2002]). Mills et al. studied the unique disulfide bond of Csk SH2 that is absent in other known SH2 domains.

Molecule | free energy of unfolding ΔG U,W^0 [1] [kcal/mol] | t1/2 of the reduction reaction (Csk L-SH2 disulfide bond) [h] | kinase activity upon formation of the disulfide bond in the SH2 domain (full-length Csk; full-length Csk) | kinase activity on prevention of the reduction of disulfide bond (full-length Csk; restored upon re-introduction of reducing agent)
oxidized L-SH2: human Csk SH2 domain with SH3–SH2 linker, residues A73–A178, disulfide oxidized (PDB 3EAC) (protein, disulfide bond C122–C164; left off: intein, end not stated, cleaved) AGTKLSLMPWFHGKITREQAERLLYPPETGLFLVRESTNYPGDYTLCVSCDGKVEHYRIMYHASKLSIDEEVYFENLMQLVEHYTSDADGLCTRLIKPKVMEGTVA | 10.1 ± 0.382 | 2.6 ± 0.1 |  | 
reduced L-SH2: human Csk SH2 domain with SH3–SH2 linker, residues A73–A178, reduced form (protein, left off: intein, end not stated, cleaved, human Csk SH2 domain with SH3–SH2 linker, residues A73–A178, reduced form) AGTKLSLMPWFHGKITREQAERLLYPPETGLFLVRESTNYPGDYTLCVSCDGKVEHYRIMYHASKLSIDEEVYFENLMQLVEHYTSDADGLCTRLIKPKVMEGTVA | 6.57 ± 0.17 |  |  | 
full-length Csk: C-terminal Src kinase, full length (protein, UniProt P41240 1-450, looked up, full-length) MSAIQAAWPSGTECIAKYNFHGTAEQDLPFCKGDVLTIVAVTKDPNWYKAKNKVGREGIIPANYVQKREGVKAGTKLSLMPWFHGKITREQAERLLYPPETGLFLVRESTNYPGDYTLCVSCDGKVEHYRIMYHASKLSIDEEVYFENLMQLVEHYTSDADGLCTRLIKPKVMEGTVAAQDEFYRSGWALNMKELKLLQTIGKGEFGDVMLGDYRGNKVAVKCIKNDATAQAFLAEASVMTQLRHSNLVQLLGVIVEEKGGLYIVTEYMAKGSLVDYLRSRGRSVLGGDCLLKFSLDVCEAMEYLEGNNFVHRDLAARNVLVSEDNVAKVSDFGLTKEASSTQDTGKLPVKWTAPEALREKKFSTKSDVWSFGILLWEIYSFGRVPYPRIPLKDVVPRVEKGYKMDAPDGCPPAVYEVMKNCWHLDAAMRPSFLQLREQLEHIKTHELHL |  |  | decreases by an order of magnitude; also recorded: reduced by an order of magnitude | tenfold reduction in kinase activity
